For one substance, Kd1 (first phase, two-exponential fit), kd1 (first phase, two-exponential fit) and kd2 (second phase, two-exponential fit) results are on record in paper PMC9270254.

Test [1] addresses human IgG (human). In words: SPR. On the technique in general: Surface plasmon resonance follows binding to a sensor surface in real time, without labels.
For test [2], the target named is human IgM (human). In words: SPR.

As to “single-chain mouse globular part of C1q (from UniProt P98086 110-245; Q02105 116-246; P14106 115-253) (domain or fragment)”, in test [1], the Kd1 (first phase, two-exponential fit) turned out to be 6.8 nM; the kd1 (first phase, two-exponential fit) was 0.032 s⁻¹; the kd2 (second phase, two-exponential fit) stood at 0.0021 s⁻¹. For the same substance, in test [2], the Kd1 (first phase, two-exponential fit) turned out to be 8.5 nM; the kd1 (first phase, two-exponential fit) was 0.029 s⁻¹; the kd2 (second phase, two-exponential fit) is 0.0023 s⁻¹.
